Key:
[1] = system: T1, O=[N+]([O-])c1ccccc1O[C@@H]1O[C@H](CO)[C@H](O)[C@H](O)[C@H]1O; assay: purified protein; type: biochemical, uncultured bacterium; conditions: 20 mM phosphate buffer, 20°C, substrate 1.0-5.0 mM
T1 construct: E. coli LMG194; monomer

[2] = system: T2, O=[N+]([O-])c1ccc(O[C@@H]2O[C@H](CO)[C@@H](O)[C@H](O)[C@H]2O)cc1; assay: purified protein; type: biochemical, uncultured bacterium; conditions: 20 mM phosphate buffer, 20°C, substrate 1.0-5.0 mM
T2 construct: E. coli LMG194; monomer

Substance BglMKg (uncultured bacterium) has a Km [1] of 9.04 ± 1.39 mM, a kcat [1] of 12.4 ± 1.35 s⁻¹ and a kcat/Km [1] of 1370 M⁻¹ s⁻¹. The Km [2] was 0.16 ± 0.03 mM, the kcat [2] was 11.7 ± 0.26 s⁻¹ and the kcat/Km [2] was 73400 M⁻¹ s⁻¹.

Reference: paper PMC3605331, “Cloning and characterization of a novel cold-active glycoside hydrolase family 1 enzyme with β-glucosidase, β-fucosidase and β-galactosidase activities” (BMC Biotechnology, 2013)
